34 molecules from patent US20210032312A1 (Janssen / Centocor, published 2021) can be followed below.

By koff is commonly meant a measure of how fast the partners let go of each other.

Where a chain is given by its changes, count along the chain named. Names may count otherwise.

First the molecules themselves.
B1: CD8S389 (designed binder)
chain: LPAPKNLVVSRVTEDSARLSWTAPDAAFDSFGILYYEPVDSGEAITLPVPGSERSYDLTGLKPGTEYFVVITGVKGGAPSTPLGTIFTT
notes: W68F mutant of P282ER9P1360_C8; the entry holds the mutation
B2: CD8S390 (designed binder)
chain: B1 chain with F68Y
notes: W68Y mutant of P282ER9P1360_C8; the entry holds the mutation
B3: CD8S378 (designed binder)
chain: LPAPKNLVVSRVTEDSARLSWTAPDAAFDSFAITYIEKEHIEEGEAIVLTVPGSERSYDLTGLKPGTEYWVPIWGVKGGANSWPLSAIFTT
notes: D43E mutant of P282DR9P1359_G7; the entry holds the mutation
B4: CD8S380 (designed binder)
chain: B3 chain with E43D, W70Y
notes: W70Y mutant of P282DR9P1359_G7; the entry holds the mutation
B5: CD8S382 (designed binder)
chain: B3 chain with E43D, W70S
notes: W70S mutant of P282DR9P1359_G7; the entry holds the mutation
B6: CD8S381 (designed binder)
chain: B3 chain with E43D, W70F
notes: W70F mutant of P282DR9P1359_G7; the entry holds the mutation
B7: CD8S383 (designed binder)
chain: B3 chain with E43D, W74Y
notes: W74Y mutant of P282DR9P1359_G7; the entry holds the mutation
B8: CD8S387 (designed binder)
chain: B3 chain with E43D, W83E
notes: W83E mutant of P282DR9P1359_G7; the entry holds the mutation
B9: CD8S379 (designed binder)
chain: B3 chain with E43S
notes: D43S mutant of P282DR9P1359_G7; the entry holds the mutation
B10: CD8S388 (designed binder)
chain: B3 chain with E43D, N81Q
notes: N81Q mutant of P282DR9P1359_G7; the entry holds the mutation
B11: CD8S396 (designed binder)
chain: LPAPKNLVVSRVTEDSARLSWTAPDAAFDSFYITYPEWPDPGGEAIVLTVPGSERSYDLTGLKPGTEYFVVIYGVKGGEIYSPLSAIFTT
notes: W32Y mutant of P282DR9P1359_C5; the entry holds the mutation
B12: CD8S400 (designed binder)
chain: B11 chain with Y32W, W38L
notes: W38L mutant of P282DR9P1359_C5; the entry holds the mutation
B13: CD8S401 (designed binder)
chain: B11 chain with Y32W, W38I
notes: W38I mutant of P282DR9P1359_C5; the entry holds the mutation
B14: CD8S398 (designed binder)
chain: B11 chain with Y32S
notes: W32S mutant of P282DR9P1359_C5; the entry holds the mutation
B15: CD8S399 (designed binder)
chain: B11 chain with Y32W, W38Y
notes: W38Y mutant of P282DR9P1359_C5; the entry holds the mutation
B16: CD8S404 (designed binder)
chain: B11 chain with Y32W, P36A
notes: P36A mutant of P282DR9P1359_C5; the entry holds the mutation
B17: CD8S397 (designed binder)
chain: B11 chain with Y32Q
notes: W32Q mutant of P282DR9P1359_C5; the entry holds the mutation
B18: CD8S402 (designed binder)
chain: B11 chain with Y32W, D40P
notes: D40P mutant of P282DR9P1359_C5; the entry holds the mutation
B19: CD8S371 (designed binder)
chain: LPAPKNLVVSRVTEDSARLSWTAPDAAFDSFQIAYPEYPPPGEAIVLTVPGSERSYDLTGLKPGTEYFVIIQGVKGGVESWPLSAIFTT
notes: Printed as W48Y mutant of P282DR9P1359_F5; the entry holds the mutation
B20: CD8S372 (designed binder)
chain: B19 chain with Y38L
notes: Printed as W48L mutant of P282DR9P1359_F5; the entry holds the mutation
B21: CD8S394 (designed binder)
chain: B19 chain with Q32A, Y38I, P41Q, I70V, Q72Y, V78S, E79Y, W81A
notes: W38I mutant of P282DR9P1359_F7; the entry holds the mutation
B22: CD8S403 (designed binder)
chain: B19 chain with Q32A, P36A, Y38W, P41Q, I70V, Q72Y, V78S, E79Y, W81A
notes: P36A mutant of P282DR9P1359_F7; the entry holds the mutation
B23: CD8S393 (designed binder)
chain: B19 chain with Q32A, Y38L, P41Q, I70V, Q72Y, V78S, E79Y, W81A
notes: W38L mutant of P282DR9P1359_F7; the entry holds the mutation
B24: CD8S373 (designed binder)
chain: B19 chain with Y38I
notes: Printed as W48I mutant of P282DR9P1359_F5; the entry holds the mutation
B25: CD8S377 (designed binder)
chain: B19 chain with Y38W, W81E
notes: W81E mutant of P282DR9P1359_F5; the entry holds the mutation
B26: CD8S375 (designed binder)
chain: B19 chain with Y38W, W81L
notes: W81L mutant of P282DR9P1359_F5; the entry holds the mutation
B27: CD8S392 (designed binder)
chain: B19 chain with Q32A, P41Q, I70V, Q72Y, V78S, E79Y, W81A
notes: W38Y mutant of P282DR9P1359_F7; the entry holds the mutation
B28: CD8S376 (designed binder)
chain: B19 chain with Y38W, W81S
notes: W81S mutant of P282DR9P1359_F5; the entry holds the mutation
B29: CD8S374 (designed binder)
chain: B19 chain with Y38W, W81Y
notes: W81Y mutant of P282DR9P1359_F5; the entry holds the mutation
B30: CD8S395 (designed binder)
chain: B19 chain with Q32A, Y38H, P41Q, I70V, Q72Y, V78S, E79Y, W81A
notes: W38H mutant of P282DR9P1359_F7; the entry holds the mutation
B31: P283DR9P1364_F8 (designed binder)
chain: LPAPKNLVVSRVTEDSARLSWTAPDAAFDSFAIAYPEWPPGEAIVLTVPGSERSYDLTGLKPGTEYFVIIYGVKGGWTSPPLSAIFTT
notes: FN3 domain
B32: P283BR9P1363_G5 (designed binder)
chain: LPAPKNLVVSRVTEDSARLSWYRATTPAPHFDSFLIQYQESEKVGEAIVLTVPGSERSYDLTGLKPGTEYTVSIYGVDVKWEGNRPVASNPLSAIFTT
notes: FN3 domain
B33: P283DR9P1364_F6 (designed binder)
chain: LPAPKNLVVSRVTEDSARLSWTAPDAAFDSFTIAYPEREQDKWGEAIVLTVPGSERSYDLTGLKPGTEYWVIIQGVKGGRPSTPLSAILTT
notes: FN3 domain
B34: P283DR9P1364_H9 (designed binder)
chain: B3 chain with A32S, T34S, K38Y, E39P, H40E, E42P, E43G, A80I, N81Q
notes: FN3 domain

T2 sequence (P01732 22-182 limits assumed): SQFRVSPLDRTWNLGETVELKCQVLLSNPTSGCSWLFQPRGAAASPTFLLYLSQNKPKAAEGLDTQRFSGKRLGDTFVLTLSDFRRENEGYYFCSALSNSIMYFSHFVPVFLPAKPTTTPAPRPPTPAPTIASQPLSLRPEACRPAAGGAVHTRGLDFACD
T4 sequence (P01732 22-235): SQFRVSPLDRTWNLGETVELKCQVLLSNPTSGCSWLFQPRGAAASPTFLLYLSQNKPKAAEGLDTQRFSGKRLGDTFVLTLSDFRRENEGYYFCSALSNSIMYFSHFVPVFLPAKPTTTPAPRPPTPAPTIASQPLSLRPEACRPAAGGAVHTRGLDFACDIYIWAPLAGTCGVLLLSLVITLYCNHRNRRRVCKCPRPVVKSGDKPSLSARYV

In one assay the target is T1, human CD8A-Fc (recombinant human CD8 alpha fused to Fc fragment of human IgG1) (human, UniProt P01732 22-182, limits assumed).
T1 construct: SPR ligand, captured by goat anti-human Fc; also called hCD8A-Fc; recombinant CD8 alpha; not shown: linker with flag (and polyhistidine) tag and Fc fragment of human IgG1; depends on which of the two constructs was used
T1 sequence (P01732 22-182 limits assumed): as the sequence (P01732 22-182 limits assumed) above
The experiment in a line: SPR, dissociation rate on recombinant CD8 alpha. In general terms: Surface plasmon resonance follows binding to a sensor surface in real time, without labels.
For the molecule B1, the koff came to 0.000184 s⁻¹.

With B2, the koff worked out at 0.000152 s⁻¹.

Take B3: the dissociation rate constant (koff) is 5.8e-05 s⁻¹.

For the molecule B4, the koff was 0.00121 s⁻¹.

Regarding B5, the koff was determined as 0.247 s⁻¹.

As to B6, the koff was 0.0002 s⁻¹.

As to B7, the koff turned out to be 0.000747 s⁻¹.

B8: the koff was 0.000125 s⁻¹.

On to B9, for which the koff is 4.97e-05 s⁻¹.

Consider B10, for which the koff turned out to be 7.54e-05 s⁻¹.

As to B11, the koff was found to be 0.000152 s⁻¹.

Consider B12, for which the koff is 0.0226 s⁻¹.

For the molecule B13, the koff came to 0.0127 s⁻¹.

As to B14, the dissociation rate constant (koff) came to 0.000443 s⁻¹.

Take B15: the koff worked out at 0.00134 s⁻¹.

For B16, the koff was 0.0309 s⁻¹.

Turning to B17, the koff came to 0.00066 s⁻¹.

As to B18, the koff came out at 4.84e-05 s⁻¹.

With B19, the koff worked out at 0.000194 s⁻¹.

Take B20: the koff is 0.000571 s⁻¹.

As to B21, the koff was found to be 0.00355 s⁻¹.

In the case of B22, the koff stood at 0.000133 s⁻¹.

Take B23: the koff is 0.00255 s⁻¹.

In the case of B24, the koff was 0.00403 s⁻¹.

As for B25, the koff is 0.0004 s⁻¹.

As for B26, the koff is 0.00083 s⁻¹.

Regarding B27, the koff came to 0.00155 s⁻¹.

B28: the koff was found to be 0.000846 s⁻¹.

B29: the koff turned out to be 0.000403 s⁻¹.

For B30, the koff came to 0.00189 s⁻¹.

The next assay concerns the target T2, human CD8A-Fc (in house) (human, UniProt P01732 22-182, limits assumed).
T2 construct: captured by goat anti-human Fc on the ProteOn chip; also called hCD8A-Fc; recombinant human CD8 alpha; not shown: linker/tag and Fc of human IgG1
Kind of assay: SPR (ProteOn), captured hCD8A-Fc.
Molecule B31 gave a koff of 0.00174 s⁻¹.

Regarding B32, the koff amounted to 0.00014 s⁻¹.

B33 displayed a koff of 0.001 s⁻¹.

B34: the koff was 0.000271 s⁻¹.

A further assay deals with T3, cynomolgus monkey CD8 alpha on primary cynomolgus CD8+ T cells (cynomolgus monkey, UniProt P01732 23-235 (human entry)).
T3 construct: also called Cyno CD8alpha; cyno CD8A
T3 sequence (P01732 other isoform, or with tags, fused parts or gaps limits assumed): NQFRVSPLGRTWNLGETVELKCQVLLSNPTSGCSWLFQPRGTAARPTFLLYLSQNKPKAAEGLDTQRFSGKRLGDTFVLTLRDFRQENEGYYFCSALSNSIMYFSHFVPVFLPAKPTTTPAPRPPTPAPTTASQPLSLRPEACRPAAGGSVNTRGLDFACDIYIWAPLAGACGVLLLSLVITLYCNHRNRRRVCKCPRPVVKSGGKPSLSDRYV
Kind of assay: flow cytometry, cyno CD8+ T cells.
As for B31, the “Cyno T-cell Binding 0.2 uM (MFI)” value amounted to 1300 MFI and the “Cyno T-cell Binding 2 uM (MFI)” value turned out to be 36700 MFI.

Consider B32, for which the “Cyno T-cell Binding 0.2 uM (MFI)” value came to 4430 MFI and the “Cyno T-cell Binding 2 uM (MFI)” value came out at 24900 MFI.

Regarding B33, the “Cyno T-cell Binding 0.2 uM (MFI)” value came to 3160 MFI and the “Cyno T-cell Binding 2 uM (MFI)” value was 33800 MFI.

As for B34, the “Cyno T-cell Binding 0.2 uM (MFI)” value turned out to be 4560 MFI and the “Cyno T-cell Binding 2 uM (MFI)” value was found to be 54600 MFI.

The next assay concerns the target T4, human CD8 alpha (CD8A) on primary human CD8+ T cells (human, UniProt P01732 22-235).
T4 construct: whole, on cells; also called hCD8A
The experiment in a line: flow cytometry, human CD8+ T cells. Background: In flow cytometry, cells or beads pass a laser one at a time.
Regarding B31, the “Human T-cell Binding 0.2 uM (MFI)” value is 458 MFI and the “Human T-cell Binding 2 uM (MFI)” value is 6300 MFI.

Regarding B32, the “Human T-cell Binding 0.2 uM (MFI)” value was 3310 MFI and the “Human T-cell Binding 2 uM (MFI)” value came to 14800 MFI.

As to B33, the “Human T-cell Binding 0.2 uM (MFI)” value was found to be 1830 MFI and the “Human T-cell Binding 2 uM (MFI)” value stood at 17200 MFI.

Turning to B34, the “Human T-cell Binding 0.2 uM (MFI)” value is 4060 MFI and the “Human T-cell Binding 2 uM (MFI)” value is 32800 MFI.
